From patent US20100075385A1 (DONALD DANFORTH PLANT SCIENCE CENTER, published 2010)

Biological target: the molecule itself
Experiment: gel filtration on a calibrated Sephacryl 200 column; self-association of the subunit (43 kDa by SDS-PAGE) into a homodimer
Text: Purification and Functional Characterization of Recombinant Enzymes—The PSOMT1 and PSOMT2 cDNAs were each constructed to express the recombinant proteins with six histidine residues elongating the amino terminus. The proteins were then purified from S. frugiperda Sf9 cell culture medium in one step by cobalt affinity chromatography to yield electrophoretically homogeneous proteins. PSOMT1 and PSOMT2 each have relative molecular masses of 43 kDa as determined by SDS-PAGE. This compares with the calculated molecular masses of 39,841 and 38,510 based on the translation of the nucleotide sequences. The native relative molecular masses were determined by gel filtration on a calibrated Sephacryl 200 column (Pharmacia). PSOMT1 and PSOMT2 are each homodimers with an Mr of 85 and 80 kDa, respectively. This is consistent with that observed for norcoclaurine 6-O-methyltransferases of (S)-reticuline biosynthesis in T. tuberosum (4).

| Protein | binding result |
| --- | --- |
| Papaver somniferum (R,S)-reticuline 7-O-methyltransferase (PSOMT1), recombinant, His-tagged subunit (enzyme, Full-length open reading frame expressed in Sf9 cells with an N-terminal His tag and purified on cobalt resin; GenBank AY268893 is printed for it; also called Pso7OMT; Ps7OMT; not shown: six histidine residues elongating the amino terminus (pFastBac HTa vector)) MDTAEERLKGQAEIWEHMFAFVDSMALKCAVELGIPDIINSHGRPVTISEIVDSLKTNTPSSSPNIDYLTRIMRLLVHKRLFTSELHQESNQLLYNLTRSSKWLLKDSKFNLSPLVLWETNPILLKPWQYLGKCAQEKSSPFERAHGCEIWDLALADPKFNNFLNGAMQCSTTTIINEMLLEYKDGFSGIAGSLVDVGGGTGSIIAEIVKAHPHIQGINFDLPHVVATAAEFPGVKHVGGDMFVDIPEADAVIMKWILHDWSDEDCTIILKNCYRAIRKKKNGKVIIVDCVLRPDGNDLFDKMGLIFDVLMMAHTTAGKERTEAEWKILLNNAGFPRYNVIRTPAFPCIIEAFPE | binds |
| Papaver somniferum (R,S)-norcoclaurine 6-O-methyltransferase (PSOMT2), recombinant, His-tagged subunit (enzyme, Full-length open reading frame expressed in Sf9 cells with an N-terminal His tag and purified on cobalt resin; GenBank AY268894 is printed for it; also called Pso6OMT; Ps6OMT; not shown: six histidine residues elongating the amino terminus (pFastBac HTa vector)) METVSKIDQQNQAKIWKQIYGFAESLVLKCAVQLEIAETLHNNVKPMSLSELASKLPVAQPVNEDRLFRIMRYLVHMELFKIDATTQKYSLAPPAKYLLRGWEKSMVDSILCINDKDFLAPWHHLGDGLTGNCDAFEKALGKSIWVYMSVNPEKNQLFNAAMACDTRLVTSALANECKSIFSDGISTLVDVGGGTGTAVKAISKAFPDIKCTIYDLPHVIADSPEIPNITKISGDMFKSIPSADAIFMKCILHDWNDDECIQILKRCKEALPKGGKVIIVDVVIDMDSTHPYAKIRLTLDLDMMLNTGGKERTKEEWKTLFDAAGFASHKVTQISAVQSVIEAYPY | binds |
